Publication PMC4020936

Experiments:
[1] = molecular target: C46S-mutant rGlEB1 (G. lamblia); test: SDS-PAGE of SEC fractions without DTT; fractions eluted from SEC separated by SDS-PAGE without DTT; shows disulfide-linked dimers only
[2] = molecular target: truncated recombinant G. lamblia EB1, rGlEB1_(1–184) (CH domain and linker) (G. lamblia); test: SEC; about 800 µg rGlEB1 in PBS on Superdex 75 10/300 GL; size markers 75, 29, 14 and 6 kDa; monomer to dimer
[3] = molecular target: C13S-mutant rGlEB1 (G. lamblia); test: as above
[4] = molecular target: full-length recombinant Giardia lamblia end-binding 1 protein, rGlEB1_(1–238) (G. lamblia); test: SDS-PAGE of SEC fractions without DTT; fractions eluted from SEC separated by SDS-PAGE without DTT; shows disulfide-linked dimers only
[5] = molecular target: full-length recombinant Giardia lamblia end-binding 1 protein, rGlEB1_(1–238) (G. lamblia); test: SEC; about 800 µg rGlEB1 in PBS on Superdex 75 10/300 GL; size markers 75, 29, 14 and 6 kDa; monomer to dimer

C46S-mutant rGlEB1 (natural protein)
stoichiometry N [1]: 2

truncated recombinant G. lamblia EB1, rGlEB1_(1–184) (CH domain and linker) (domain or fragment)
stoichiometry N [2]: 2

C13S-mutant rGlEB1 (natural protein)
stoichiometry N [3]: 2

full-length recombinant Giardia lamblia end-binding 1 protein, rGlEB1_(1–238) (natural protein)
stoichiometry N [4]: 2 | stoichiometry N [5]: 2
